Here are results for one variant from IntAct's records for PubMed 17380123.

B1: Zinc finger HIT domain-containing protein 1 (Homo sapiens), O43257 (parent)
chain: MVEKKTSVRSQDPGQRRVLDRAARQRRINRQLEALENDNFQDDPHAGLPQLGKRLPQFDDDADTGKKKKKTRGDHFKLRFRKNFQALLEEQNLSVAEGPNYLTACAGPPSRPQRPFCAVCGFPSPYTCVSCGARYCTVRCLGTHQETRCLKWTV

The variants in the assay derive from B1. Conditions: with mk14_human MAPK14, Q16539.
Sequence of mk14_human MAPK14, Q16539 (Q16539 whole entry): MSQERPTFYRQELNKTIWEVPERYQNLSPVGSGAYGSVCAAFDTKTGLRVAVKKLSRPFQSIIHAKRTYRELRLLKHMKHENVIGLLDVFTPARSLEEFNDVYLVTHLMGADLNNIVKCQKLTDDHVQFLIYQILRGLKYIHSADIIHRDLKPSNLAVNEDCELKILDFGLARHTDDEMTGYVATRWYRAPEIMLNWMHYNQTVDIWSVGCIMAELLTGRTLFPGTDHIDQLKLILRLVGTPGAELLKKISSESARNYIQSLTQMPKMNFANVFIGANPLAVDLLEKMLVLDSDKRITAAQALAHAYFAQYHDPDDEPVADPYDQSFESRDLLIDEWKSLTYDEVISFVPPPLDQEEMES
Consider T103A, for which the “effect of a mutation on the interaction” value was “disrupting interaction”.
